± gives the standard deviation of the averaged measurements.
Experiments:
[1] = tested on: VchCAST RNA-guided transposition machinery (E. coli BL21(DE3) host, lacZ target); assay: relative integration efficiency (T-RL orientation) vs wild-type transposon end (log2 (normalized fold change)); transposon end mutated: right end (5 bp flank + 75 bp right end); higher = more efficient transposition
Method in brief: (§1)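 Pools of 1549 left-end or 1849 right-end barcoded transposon variants were cloned into a pUC57 mini-transposon donor and co-transformed into E. coli BL21(DE3) with a T7-driven effector plasmid carrying a CRISPR array, tniQ-cas8-cas7-cas6 and tnsA-tnsB-tnsC. Plating used 0.1 mM IPTG at 37°C for 18 h, and input plasmids and genomic integration junctions were PCR-amplified for Illumina sequencing, with two biological output replicates and four reference barcodes. Relative integration efficiency is the log-transformed fold change of output over input barcode abundance, normalised to the reference barcodes.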

[2] = tested on: VchCAST RNA-guided transposition machinery (E. coli BL21(DE3) host, lacZ target); assay: relative integration efficiency (T-LR orientation) vs wild-type transposon end (log2 (normalized fold change)); transposon end mutated: right end (5 bp flank + 75 bp right end); higher = more efficient transposition
Method in brief: as §1

| Sequence | relative integration efficiency (log2) [1] | relative integration efficiency (log2) [2] |
| --- | --- | --- |
| ACATTTGTTGATACAACCATAAAATGATAATTACCCCCATAAATTGATAATGATGACACCGAATTTAACTATAACGCTCTGATCATAGTCAGACCAACATTGCTACGACCCGTATTCGCACCGACAC | -1.63 ± 0.46 | 2.16 ± 0.067 |
| ACATTTGTTGATACAACCATAAAATGATAATTACCCCCATAAATTGATAATTATCACACCCCATTTAACTATAACGCTCTGATCATAGTCAGACCAACATTGCTACGACCCGTATTCGCACCGACAC | -0.917 ± 0.1 | 2.089 ± 0.0067 |
| ACATTTGTTGATACAACCATAAAATGATAATTACCCCCATAAATTGATAATTATCCCACCCAATTTAACTATAACGCTCTGATCATAGTCAGACCAACATTGCTACGACCCGTATTCGCACCGACAC | -1.15 ± 0.18 | 2.06 ± 0.12 |
| ACATTTGTTGATACAACCATAAAATGATAATTACCCCCATAAATTGATAATTATCCCACCCCATTTAACTATAACGCTCTGATCATAGTCAGACCAACATTGCTACGACCCGTATTCGCACCGACAC | -1.32 ± 0.25 | 1.82 ± 0.11 |
| ACATTTGTTGATACAACCATAAAATGATAATTACCCCCATAAATTGATAATTGTGACACCGAATTTAACTATAACGCTCTGATCATAGTCAGACCAACATTGCTACGACCCGTATTCGCACCGACAC | -1.79 ± 0.38 | 1.94 ± 0.097 |
| ACATTTGTTGATACAACCATAAAATGATAATTACCCCCATCAATTGATAATTATCACACCCAATTTAACTATAACGCTCTGATCATAGTCAGACCAACATTGCTACGACCCGTATTCGCACCGACAC | -2.23 ± 0.41 | 0.506 ± 0.048 |
| ACATTTGTTGATACAACCATAAAATGATAATTACCCCCATCAATTGATAATTATCACACCCCATTTAACTATAACGCTCTGATCATAGTCAGACCAACATTGCTACGACCCGTATTCGCACCGACAC | -2.27 ± 0.37 | 0.526 ± 0.33 |
| ACATTTGTTGATACAACCATAAAATGATAATTACCCCCATCAATTGATAATTATCCCACCCAATTTAACTATAACGCTCTGATCATAGTCAGACCAACATTGCTACGACCCGTATTCGCACCGACAC | -2.38 ± 0.22 | 0.511 ± 0.036 |
| ACATTTGTTGATACAACCATAAAATGATAATTACCCCCATCAATTGATAATTATCCCACCCCATTTAACTATAACGCTCTGATCATAGTCAGACCAACATTGCTACGACCCGTATTCGCACCGACAC | -2.78 ± 0.51 | 0.417 ± 0.32 |
| ACATTTGTTGATACAACCATAAAATGATAATTACTCTGACACCCATAAATTGATAATTATCACACCCATAAATTGATATTGCTCATAGTCAGACCAACATTGCTACGACCCGTATTCGCACCGACAC | -2.73 ± 0.083 | 0.8247 ± 0.0022 |
| ACATTTGTTGATACAACCATAAAATGATAATTACTCTGACACCCATAAATTGATAATTATCAGTGGGTATTTAACTATAACGTCATAGTCAGACCAACATTGCTACGACCCGTATTCGCACCGACAC | -2.06 ± 0.27 | 1.33 ± 0.1 |
| ACATTTGTTGATACAACCATAAAATGATAATTACTCTGATCACCCATAAATTGATAATTATCACACCCATAAATTGATATTGCCATAGTCAGACCAACATTGCTACGACCCGTATTCGCACCGACAC | -4.39 ± 0.071 | 0.359 ± 0.11 |
| ACATTTGTTGATACAACCATAAAATGATAATTACTCTGATCACCCATAAATTGATAATTATCAGTGGGTATTTAACTATAACGCATAGTCAGACCAACATTGCTACGACCCGTATTCGCACCGACAC | -2.48 ± 0.42 | 0.977 ± 0.086 |
| ACATTTGTTGATACAACCATAAAATGATAATTACTCTGATCATAGTCACACCCATAAATTGATAATTATCACACCCATAAATTGATATTGCGACCAACATTGCTACGACCCGTATTCGCACCGACAC | -4.9525 ± 0.00028 | -1.68 ± 0.39 |
| ACATTTGTTGATACAACCATAAAATGATAATTACTCTGATCATAGTCACACCCATAAATTGATAATTATCAGTGGGTATTTAACTATAACGGACCAACATTGCTACGACCCGTATTCGCACCGACAC | -3.34 ± 0.27 | -0.9229 ± 0.0035 |
| ACATTTGTTGATACAACCATAAAATGATAATTACTCTGATCATAGTCAGACACCCATAAATTGATAATTATCACACCCATAAATTGATATTGCCCAACATTGCTACGACCCGTATTCGCACCGACAC | -3.73 ± 0.17 | -0.838 ± 0.091 |
| ACATTTGTTGATACAACCATAAAATGATAATTACTCTGATCATAGTCAGACACCCATAAATTGATAATTATCAGTGGGTATTTAACTATAACGCCAACATTGCTACGACCCGTATTCGCACCGACAC | -1.71 ± 0.23 | 1.66 ± 0.32 |
| ACATTTGTTGATACAACCATAAAATGATAATTACTCTGATCATAGTCAGACCAACATTCACCCATAAATTGATAATTATCACACCCATAAATTGATATTGCGCTACGACCCGTATTCGCACCGACAC | -4.53 ± 0.13 | -2.04 ± 0.32 |

| Sequence | relative integration efficiency (log2) [1] | relative integration efficiency (log2) [2] |
| --- | --- | --- |
| ACATTTGTTGATACAACCATAAAATGATAATTACTCTGATCATAGTCAGACCAACATTCACCCATAAATTGATAATTATCAGTGGGTATTTAACTATAACGGCTACGACCCGTATTCGCACCGACAC | -3.1 ± 0.26 | -0.137 ± 0.076 |
| ACATTTGTTGATACAACCATAAAATGATAATTACTCTGATCATAGTCAGACCAACATTGCTACCACCCATAAATTGATAATTATCACACCCATAAATTGATATTGCGACCCGTATTCGCACCGACAC | -3.63 ± 0.078 | -0.553 ± 0.016 |
| ACATTTGTTGATACAACCATAAAATGATAATTACTCTGATCATAGTCAGACCAACATTGCTACCACCCATAAATTGATAATTATCAGTGGGTATTTAACTATAACGGACCCGTATTCGCACCGACAC | -1.54 ± 0.53 | 1.601 ± 0.014 |
| ACATTTGTTGATACAACCATAAAATGATAATTACTCTGATCATAGTCAGACCAACATTGCTACGACCCCACCCATAAATTGATAATTATCACACCCATAAATTGATATTGCGTATTCGCACCGACAC | -3.23 ± 0.04 | -0.249 ± 0.18 |
| ACATTTGTTGATACAACCATAAAATGATAATTACTCTGATCATAGTCAGACCAACATTGCTACGACCCCACCCATAAATTGATAATTATCAGTGGGTATTTAACTATAACGGTATTCGCACCGACAC | -2.938 ± 0.018 | -0.154 ± 0.0093 |
| ACATTTGTTGATACAACCATAAAATGATAATTACTCTGATCATAGTCAGACCAACATTGCTACGACCCGTATTCACCCATAAATTGATAATTATCACACCCATAAATTGATATTGCCGCACCGACAC | -3.12 ± 0.47 | 0.261 ± 0.085 |
| ACATTTGTTGATACAACCATAAAATGATAATTACTCTGATCATAGTCAGACCAACATTGCTACGACCCGTATTCACCCATAAATTGATAATTATCAGTGGGTATTTAACTATAACGCGCACCGACAC | -2.15 ± 0.4 | 1.08 ± 0.33 |
| ACATTTGTTGATACAACCATAAAATGATAATTACTCTGATCATAGTCAGACCAACATTGCTACGACCCGTATTCGCACCACCCATAAATTGATAATTATCACACCCATAAATTGATATTGCCGACAC | -2.767 ± 0.019 | -0.66 ± 0.24 |
| ACATTTGTTGATACAACCATAAAATGATAATTACTCTGATCATAGTCAGACCAACATTGCTACGACCCGTATTCGCACCACCCATAAATTGATAATTATCAGTGGGTATTTAACTATAACGCGACAC | -2.38 ± 0.56 | 1.01 ± 0.035 |
| ACATTTGTTGATACAACCATAAAATGATAATTACTCTGATCATAGTCAGACCAACATTGCTACGACCCGTATTCGCACCGACACAACGACTATATTTACACCCATAAATTGATAATTATCAGTGGGT | -1.358 ± 0.0083 | 1.81 ± 0.28 |
| ACATTTGTTGATACAACCATAAAATGATAATTACTCTGATCATAGTCAGACCAACATTGCTACGACCCGTATTCGCACCGACACAACGACTATATTTATGGGTCACCCATAAATTGATAATTATCAG | -1.52 ± 0.14 | 1.36 ± 0.37 |
| ACATTTGTTGATACAACCATAAAATGATAATTACTCTGATCATAGTCAGACCAACATTGCTACGACCCGTATTCGCACCGACACAACGACTATCACCCATAAATTGATAATTATCAGTGGGTATTTA | -1.16 ± 0.15 | 2.166 ± 0.019 |
| ACATTTGTTGATACAACCATAAAATGATAATTACTCTGATCATAGTCAGACCAACATTGCTACGACCCGTATTCGCACCGACACAACGCACCCATAAATTGATAATTATCAGTGGGTATTTAACTAT | -1.4 ± 0.054 | 1.8 ± 0.1 |
| ACATTTGTTGATACAACCATAAAATGATAATTACTCTGATCATAGTCAGACCAACATTGCTACGACCCGTATTCGCACCGACACACCCATAAATTGATAATTATCACACCCATAAATTGATATTGCC | -2.59 ± 0.21 | 0.795 ± 0.3 |
| ACATTTGTTGATACAACCATAAAATGATAATTACTCTGATCATAGTCAGACCAACATTGCTACGACCCGTATTCGCACCGACACACCCATAAATTGATAATTATCAGTGGGTATTTAACTATAACGC | -1.05 ± 0.17 | 2.24 ± 0.21 |
| ACATTTGTTGATACAACCATAAAATGATAATTACTCTGATCATAGTCAGACCACACCCATAAATTGATAATTATCACACCCATAAATTGATATTGCACATTGCTACGACCCGTATTCGCACCGACAC | -4.6 ± 0.057 | -2.36 ± 0.32 |
| ACATTTGTTGATACAACCATAAAATGATAATTACTCTGATCATAGTCAGACCACACCCATAAATTGATAATTATCAGTGGGTATTTAACTATAACGACATTGCTACGACCCGTATTCGCACCGACAC | -0.22 ± 0.33 | 2.27 ± 0.15 |

From the supplement of paper PMC10201428
